From the supplement of paper PMC6757056
± gives the standard deviation of the averaged measurements.

B1: library; a variant is named by its letters at N, in order (parent)
chain: GCUGUCACCGGUGUAUUACCCUAGUGGUCGACCGGUCUGAUGAGUCUNNNNNNAGACGAAACAGC

Legend:
[1] = variants of: B1; test: FACS-Seq fitted mean relative fluorescence mCherry/BFP without ligand (log10 relative fluorescence); ligand: hypoxanthine (xanthine aptamer); higher = higher reporter protein expression; conditions: HEK293T, ligand present: no
Summary of the method: (§1)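 Sorting into 6 bins by mCherry/BFP followed 48 h of incubation with or without ligand. The cells were enriched HEK293T libraries lentivirally bearing an mCherry reporter with the ribozyme switch and an EF1α-BFP marker, and bin genomic DNA was PCR-amplified, barcoded and sequenced on MiSeq. Fluorescence is the fitted normal mean of the bin counts. Means were fitted on log10(mCherry/BFP), scaled to five spiked-in control ribozymes.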

[2] = variants of: B1; test: normalized RNA/DNA level with ligand (relative to sTRSVctl = 100) (log10 (% of sTRSVctl)); ligand: hypoxanthine (xanthine aptamer); higher = less ribozyme self-cleavage, higher mRNA level; conditions: ligand concentration (+) RNA-Seq: 5 mM, HEK293T, reporter: mCherry (pCS4076), ligand present: yes
Summary of the method: (§2)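 Only sequences with at least 100 DNA reads were analyzed, from HEK293T cells transfected with 4 µg per 6-well well of ribozyme switch library plasmids 72 h before RNA extraction with EDTA. Any ligand was added 1 h before transfection. RNA level was defined as RNA over DNA reads, normalized to a spiked-in non-cleaving sequence or to the top sequences, then scaled and log-transformed. The top set was 25 sequences, and the scaling was ×100 followed by log10.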

[3] = variants of: B1; test: normalized RNA/DNA level without ligand (relative to sTRSVctl = 100) (log10 (% of sTRSVctl)); ligand: hypoxanthine (xanthine aptamer); higher = less ribozyme self-cleavage, higher mRNA level; conditions: HEK293T, reporter: mCherry (pCS4076), ligand present: no
Summary of the method: as §2

[4] = variants of: B1; test: FACS-Seq fitted mean relative fluorescence mCherry/BFP with ligand (log10 relative fluorescence); ligand: hypoxanthine (xanthine aptamer); ligand concentration (+) FACS-Seq: 5 mM; higher = higher reporter protein expression; conditions: HEK293T, ligand present: yes
Summary of the method: as §1

Variant | FACS-Seq fitted mean (log10) [1] | normalized RNA/DNA level with ligand (log10) [2] | normalized RNA/DNA level without ligand (log10) [3] | FACS-Seq fitted mean (log10) [4]
GCCUAA | 0.363 ± 0.14 | 1.94 ± 0.071 | 1.8319 ± 0.00042 | 0.558 ± 0.036
GCCUAG | 0.303 ± 0.03 | 1.89 ± 0.097 | 1.5 ± 0.12 | 0.678 ± 0.037
CCGGGC | 0.124 ± 0.013 | 1.99 ± 0.074 | 1.88 ± 0.019 | 0.382 ± 0.068
CCGGGA | 0.607 ± 0.06 | 1.97 ± 0.022 | 1.82 ± 0.037 | 0.674 ± 0.071
CCGCAG | 0.345 ± 0.031 | 1.82 ± 0.072 | 1.39 ± 0.032 | 0.638 ± 0.042
ACGCUG | 0.109 ± 0.026 | 1.91 ± 0.052 | 1.45 ± 0.031 | 0.566 ± 0.016
UCGGCG | 0.493 ± 0.023 | 1.982 ± 0.0021 | 1.8 ± 0.03 | 0.666 ± 0.025
GCCUGA | 0.389 ± 0.04 | 1.99 ± 0.022 | 1.81 ± 0.038 | 0.6019 ± 0.0038
ACCGUA | 0.247 ± 0.0083 | 1.93 ± 0.065 | 1.822 ± 0.014 | 0.474 ± 0.038
ACGUAA | 0.16 ± 0.018 | 1.86 ± 0.072 | 1.491 ± 0.0093 | 0.4284 ± 0.0027
ACGUAG | -0.209 ± 0.01 | 1.61 ± 0.021 | 1.16 ± 0.054 | 0.574 ± 0.028
CCCUUA | 0.315 ± 0.0096 | 2.002 ± 0.019 | 1.905 ± 0.014 | 0.279 ± 0.083
GCGCGG | -0.388 ± 0.022 | 1.81 ± 0.072 | 1.3 ± 0.021 | 0.464 ± 0.018
ACCGGG | 0.153 ± 0.0079 | 1.944 ± 0.015 | 1.89 ± 0.038 | 0.548 ± 0.0066
CCGAAG | -0.0351 ± 0.034 | 1.719 ± 0.0075 | 1.2 ± 0.14 | 0.496 ± 0.027
CCGAAA | 0.595 ± 0.015 | 1.91 ± 0.049 | 1.7 ± 0.04 | 0.689 ± 0.05
GCCGUU | -0.297 ± 0.0052 | 1.978 ± 0.019 | 1.92 ± 0.051 | 0.037 ± 0.093
GCCUUA | -0.138 ± 0.047 | 1.97 ± 0.0091 | 1.92 ± 0.026 | -0.197 ± 0.092

Variant | FACS-Seq fitted mean (log10) [1] | normalized RNA/DNA level with ligand (log10) [2] | normalized RNA/DNA level without ligand (log10) [3] | FACS-Seq fitted mean (log10) [4]
GCCUUG | 0.213 ± 0.0088 | 1.93 ± 0.05 | 1.46 ± 0.016 | 0.64 ± 0.021
GCCUUC | -0.325 ± 0.056 | 1.968 ± 0.0039 | 1.88 ± 0.058 | 0.101 ± 0.059
ACCGAU | 0.387 ± 0.047 | 1.89 ± 0.056 | 1.669 ± 0.0087 | 0.531 ± 0.015
UCGUAG | 0.444 ± 0.042 | 1.88 ± 0.031 | 1.5605 ± 0.0013 | 0.642 ± 0.051
UCGCCU | -0.0175 ± 0.065 | 2.036 ± 0.016 | 1.89 ± 0.062 | 0.035 ± 0.011
CCGGUG | 0.264 ± 0.0078 | 1.87 ± 0.087 | 1.45 ± 0.044 | 0.594 ± 0.0013
CCGGUU | 0.42 ± 0.083 | 2.026 ± 0.011 | 1.91 ± 0.032 | 0.297 ± 0.098
UCGAUC | 0.537 ± 0.11 | 1.98 ± 0.033 | 1.96 ± 0.031 | 0.59 ± 0.045
GCGUUA | 0.535 ± 0.018 | 1.94 ± 0.037 | 1.65 ± 0.073 | 0.594 ± 0.022
GCGAGA | -0.0976 ± 0.016 | 1.8 ± 0.042 | 1.31 ± 0.0073 | 0.312 ± 0.025
GCGAGU | 0.238 ± 0.013 | 1.86 ± 0.044 | 1.23 ± 0.059 | 0.662 ± 0.069
GCGAGG | -0.188 ± 0.032 | 1.637 ± 0.015 | 1.11 ± 0.036 | 0.5 ± 0.017
CCCGCA | -0.714 ± 0.04 | 1.94 ± 0.028 | 1.91 ± 0.022 | -0.0625 ± 0.038
UCGAGU | -0.023 ± 0.0044 | 1.74 ± 0.037 | 1.2 ± 0.071 | 0.407 ± 0.029
UCGAGA | 0.0619 ± 0.098 | 1.74 ± 0.046 | 1.16 ± 0.086 | 0.455 ± 0.15
GCGGAG | -0.112 ± 0.056 | 1.66 ± 0.054 | 1.24 ± 0.052 | 0.449 ± 0.1
GCGGAC | 0.00746 ± 0.015 | 1.75 ± 0.046 | 1.31 ± 0.032 | 0.546 ± 0.037
GCGGAA | 0.328 ± 0.11 | 1.88 ± 0.033 | 1.53 ± 0.069 | 0.67 ± 0.06
